Reference: article PMC3035117 (ChemMedChem, 2010)
Read-outs that look alike come from different tables or passages of the source. Square brackets hold non-standard residues; d marks the D form. Ends that are not written are not given here. Ftp = ferrocenyl-triazole-Pro (made from azidoproline); Cit = NC(=O)NCCC[C@H](N)C(=O)O

Experiments:
HIV-1 YU-2 gp120 [1] = target: T1, HIV-1 YU-2 gp120 (HIV-1 (YU-2), UniProt P35961 32-498); test: ITC
HIV-1 YU-2 gp120 [2] = target: T1, HIV-1 YU-2 gp120; test: ELISA
HIV-1 YU-2 gp120 [3] = target: T1, HIV-1 YU-2 gp120; test: ELISA; remark: listed apart in the source

For NI[Ftp]WS-NH2 [UM41], which dH (HIV-1 YU-2 gp120 [1]) is on record?
Its dH is -6.1 kcal/mol.

For [Cit]NNI[Ftp]WS [UM24], which dH (HIV-1 YU-2 gp120 [1]) is on record?
The dH was -16.7 kcal/mol.

What does the source list for NNI[Ftp]W-NH2 [UM17]?
IC50 (HIV-1 YU-2 gp120 [2]): 600 ± 50 nM; dH (HIV-1 YU-2 gp120 [1]): -13.2 kcal/mol; IC50 (HIV-1 YU-2 gp120 [3]): 4000 ± 170 nM

Which dH (HIV-1 YU-2 gp120 [1]) does the source give for INNI[Ftp]W-NH2 [UM15] here?
Its dH is -16.6 kcal/mol.
